US20250277048A1 (Regeneron, published 2025)

B1: 30027P2 (antibody, human IgG4 S228P, kappa, V domains shown)
VH: EVQLVESGGGLVQPGGSLRLSCAASGFTFSSYAMNWVRQAPGKGLEWVSIISGTIGKTYYADSVKGRFTISRDNSKNTLYLQMNSLRGEDTAVYYCAKDTERDITGSPFDYWGQGTLVTVSS
VL: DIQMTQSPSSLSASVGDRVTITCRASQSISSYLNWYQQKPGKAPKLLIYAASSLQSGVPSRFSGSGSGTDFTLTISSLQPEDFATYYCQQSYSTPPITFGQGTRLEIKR
notes: parental bivalent anti-CD40 mAb; common light chain; also called H4sH30027P2
B2: 21520P2 (antibody, human IgG4 S228P, kappa, V domains shown)
VH: EVQLVESGGGLVQPGGSLRLSCAASGFTFGSYGMAWVRQAPGKGLEWVSAISGSGDYTNYADSVKRRFTISRDNSKNTLYLQMSSLRAEDTAVYYCAKEKTGTTGYLYSGMDVWGQGTTVTVSS
VL: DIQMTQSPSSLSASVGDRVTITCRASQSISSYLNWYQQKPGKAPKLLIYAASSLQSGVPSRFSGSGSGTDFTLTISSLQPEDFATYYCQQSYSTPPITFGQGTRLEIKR
notes: parental bivalent anti-CD40 mAb; common light chain; also called H4sH21520P2
B3: REGN16431 (bispecific antibody, human IgG4 S228P, kappa)
heavy 1: QLQLQESGPGLVRPSETLSLTCSVSGASMNTNNYYWGWIRQPPGKGLEWIGSGYYNGNTYYNPSLKSRVTISVDTSKNQFSLKLNSVTAADTAVYYCARQTPPRIIGSPNIWGQGTMVTVSSASTKGPSVFPLAPCSRSTSESTAALGCLVKDYFPEPVTVSWNSGALTSGVHTFPAVLQSSGLYSLSSVVTVPSSSLGTKTYTCNVDHKPSNTKVDKRVESKYGPPCPPCPAPPVAGPSVFLFPPKPKDTLMISRTPEVTCVVVDVSQEDPEVQFNWYVDGVEVHNAKTKPREEQFNSTYRVVSVLTVLHQDWLNGKEYKCKVSNKGLPSSIEKTISKAKGQPREPQVYTLPPSQEEMTKNQVSLTCLVKGFYPSDIAVEWESNGQPENNYKTTPPVLDSDGSFFLYSRLTVDKSRWQEGNVFSCSVMHEALHNHYTQKSLSLSLGK
heavy 2: EVQLVESGGGLVQPGGSLRLSCAASGFTFGSYGMAWVRQAPGKGLEWVSAISGSGDYTNYADSVKRRFTISRDNSKNTLYLQMSSLRAEDTAVYYCAKEKTGTTGYLYSGMDVWGQGTTVTVSSASTKGPSVFPLAPCSRSTSESTAALGCLVKDYFPEPVTVSWNSGALTSGVHTFPAVLQSSGLYSLSSVVTVPSSSLGTKTYTCNVDHKPSNTKVDKRVESKYGPPCPPCPAPPVAGPSVFLFPPKPKDTLMISRTPEVTCVVVDVSQEDPEVQFNWYVDGVEVHNAKTKPREEQFNSTYRVVSVLTVLHQDWLNGKEYKCKVSNKGLPSSIEKTISKAKGQPREPQVYTLPPSQEEMTKNQVSLTCLVKGFYPSDIAVEWESNGQPENNYKTTPPVLDSDGSFFLYSRLTVDKSRWQEGNVFSCSVMHEALHNRFTQKSLSLSPGK
light: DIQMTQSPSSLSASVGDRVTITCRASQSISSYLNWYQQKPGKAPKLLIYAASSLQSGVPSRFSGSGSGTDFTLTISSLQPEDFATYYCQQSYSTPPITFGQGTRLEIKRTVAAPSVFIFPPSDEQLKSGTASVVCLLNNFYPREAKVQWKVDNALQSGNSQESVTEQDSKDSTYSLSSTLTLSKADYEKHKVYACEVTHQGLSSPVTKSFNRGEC
notes: D1 arm from 21519P2, D2 arm from 21520P2, common light chain; also called CD40xCD40 (21519 x 21520)
B4: REGN16432 (bispecific antibody, human IgG4 S228P, kappa)
heavy 1: EVQLVESGGGLVQPGGSLRLSCAASGFTFSSYAMNWVRQAPGKGLEWVSIISGTIGKTYYADSVKGRFTISRDNSKNTLYLQMNSLRGEDTAVYYCAKDTERDITGSPFDYWGQGTLVTVSSASTKGPSVFPLAPCSRSTSESTAALGCLVKDYFPEPVTVSWNSGALTSGVHTFPAVLQSSGLYSLSSVVTVPSSSLGTKTYTCNVDHKPSNTKVDKRVESKYGPPCPPCPAPPVAGPSVFLFPPKPKDTLMISRTPEVTCVVVDVSQEDPEVQFNWYVDGVEVHNAKTKPREEQFNSTYRVVSVLTVLHQDWLNGKEYKCKVSNKGLPSSIEKTISKAKGQPREPQVYTLPPSQEEMTKNQVSLTCLVKGFYPSDIAVEWESNGQPENNYKTTPPVLDSDGSFFLYSRLTVDKSRWQEGNVFSCSVMHEALHNHYTQKSLSLSLGK
heavy 2: EVQLVESGGGLVQPGGSLRLSCAASGFTFGSYGMAWVRQAPGKGLEWVSAISGSGDYTNYADSVKRRFTISRDNSKNTLYLQMSSLRAEDTAVYYCAKEKTGTTGYLYSGMDVWGQGTTVTVSSASTKGPSVFPLAPCSRSTSESTAALGCLVKDYFPEPVTVSWNSGALTSGVHTFPAVLQSSGLYSLSSVVTVPSSSLGTKTYTCNVDHKPSNTKVDKRVESKYGPPCPPCPAPPVAGPSVFLFPPKPKDTLMISRTPEVTCVVVDVSQEDPEVQFNWYVDGVEVHNAKTKPREEQFNSTYRVVSVLTVLHQDWLNGKEYKCKVSNKGLPSSIEKTISKAKGQPREPQVYTLPPSQEEMTKNQVSLTCLVKGFYPSDIAVEWESNGQPENNYKTTPPVLDSDGSFFLYSRLTVDKSRWQEGNVFSCSVMHEALHNRFTQKSLSLSPGK
light: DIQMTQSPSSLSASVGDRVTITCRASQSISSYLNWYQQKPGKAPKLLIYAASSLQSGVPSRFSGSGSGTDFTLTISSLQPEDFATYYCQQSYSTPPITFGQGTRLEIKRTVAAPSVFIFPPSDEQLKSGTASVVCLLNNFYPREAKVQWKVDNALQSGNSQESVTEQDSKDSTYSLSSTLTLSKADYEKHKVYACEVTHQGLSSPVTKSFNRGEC
notes: D1 arm from 30027P2, D2 arm from 21520P2, common light chain; also called CD40xCD40 (30027 x 21520)
B5: 21519P2 (antibody, human IgG4 S228P, kappa, V domains shown)
VH: QLQLQESGPGLVRPSETLSLTCSVSGASMNTNNYYWGWIRQPPGKGLEWIGSGYYNGNTYYNPSLKSRVTISVDTSKNQFSLKLNSVTAADTAVYYCARQTPPRIIGSPNIWGQGTMVTVSS
VL: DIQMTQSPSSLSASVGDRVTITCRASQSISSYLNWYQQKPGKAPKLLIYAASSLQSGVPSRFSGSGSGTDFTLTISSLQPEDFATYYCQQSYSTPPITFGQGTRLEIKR
notes: parental bivalent anti-CD40 mAb; common light chain; also called H4sH21519P2

What was measured:
[1] = target: T1, human CD40 (hCD40) expressed on cells (human, UniProt P25942 21-277); assay: cell-based or functional assay
[2] = target: T1, human CD40 (hCD40) expressed on cells; assay: flow cytometry, Ramos 2G6.4C10 cells
Outline: (§1)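 Cells were incubated 30 min at 4 °C with antibody dilutions from 1.7 pM to 100 nM in 2% FBS/PBS, then with 2.5 μg/ml APC anti-human IgG Fcγ, and fixed. Multiplexed populations were separated by CellTrace signature. APC median fluorescence was fitted with a four-parameter logistic model, and MFI >1500 at 100 nM counted as specific binding.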

[3] = target: T1, human CD40 (hCD40) expressed on cells; assay: flow cytometry, HEK293/D9/hCD40 cells
Outline: as §1

[4] = target: T2, Macaca fascicularis CD40 (mfCD40) expressed on HEK293/D9/mfCD40 cells (Macaca fascicularis, UniProt G7PG38 21-278); assay: flow cytometry, HEK293/D9/mfCD40 cells
T2 construct: whole, on cells; also called monkey CD40
Outline: as §1

[5] = target: T3, human CD40 extracellular domain expressed with a C-terminal myc-myc-hexahistidine tag (human); assay: ELISA blocking of 40 nM hCD40-mmH binding to 9His-hCD40L
T3 construct: also called hCD40-MMH; hCD40-mmH
Outline: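 Antibodies (977 pM to 1 μM in PBS+0.5% BSA) were pre-mixed 1 h with 40 nM hCD40-mmH (P20-R193, near its binding EC₅₀), then transferred to plates coated overnight at 4° C with 5 μg/mL 9His-hCD40L. After 1 h at room temperature, bound hCD40-mmH was detected with HRP anti-c-Myc and TMB, read at OD₄₅₀.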

T1 sequence (P25942 21-277): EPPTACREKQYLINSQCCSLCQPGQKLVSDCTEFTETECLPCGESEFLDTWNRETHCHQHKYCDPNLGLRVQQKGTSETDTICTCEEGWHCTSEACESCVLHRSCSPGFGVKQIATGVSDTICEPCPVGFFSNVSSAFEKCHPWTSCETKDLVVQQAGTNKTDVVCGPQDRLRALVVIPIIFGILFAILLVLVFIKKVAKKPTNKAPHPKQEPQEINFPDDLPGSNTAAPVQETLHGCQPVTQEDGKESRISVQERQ

| Binder | IC50, 900 pM hCD40L, Raji NFkB-luc [1] [M] | Max % activation, no ligand, Raji NFkB-luc [1] [%] | Max % inhibition, 900 pM hCD40L, Raji NFkB-luc [1] [%] | EC50 [2] [nM] | MFI at 100 nM [2] [MFI] | EC50 [3] [nM] | MFI at 100 nM [3] [MFI] | EC50 [4] [nM] | MFI at 100 nM [4] [MFI] | % Blocking at 1 uM mAb [5] [%] | EC50, no ligand, Raji NFkB-luc [1] [nM] | IC50 [5] [nM] |
| --- | --- | --- | --- | --- | --- | --- | --- | --- | --- | --- | --- | --- |
| B1 | 8.95e-12 | 9 | 67 | 0.45 | 2620 | 0.72 | 20900 | 1 | 33900 | 10 |  |  |
| B2 | 7.7e-11 | 25 | 81 | 0.8 | 2450 | 0.82 | 20700 | 3.7 | 24100 | 94 | > 100 | 62 |
| B3 | 1.07e-10 | 13 | 82 | 1.9 | 3850 | 1.9 | 29500 | 8.4 | 43100 | 93 |  | 33 |
| B4 | 1.02e-10 | 5 | 68 | 1.1 | 3850 | 1.5 | 30300 | 2.1 | 48700 | 95 |  | 32 |
| B5 | 6.05e-11 | 15 | 92 | 1.5 | 2410 | 1.3 | 20200 | 10 | 11500 | 94 |  | 61 |
